Here are results for one molecule from US20210369822A1 (published 2021).

The experiment concerns the target hERG (UniProt Q12809 1-1159). Kind of experiment: cell-based or functional assay.

Chain of hERG (Q12809 whole entry): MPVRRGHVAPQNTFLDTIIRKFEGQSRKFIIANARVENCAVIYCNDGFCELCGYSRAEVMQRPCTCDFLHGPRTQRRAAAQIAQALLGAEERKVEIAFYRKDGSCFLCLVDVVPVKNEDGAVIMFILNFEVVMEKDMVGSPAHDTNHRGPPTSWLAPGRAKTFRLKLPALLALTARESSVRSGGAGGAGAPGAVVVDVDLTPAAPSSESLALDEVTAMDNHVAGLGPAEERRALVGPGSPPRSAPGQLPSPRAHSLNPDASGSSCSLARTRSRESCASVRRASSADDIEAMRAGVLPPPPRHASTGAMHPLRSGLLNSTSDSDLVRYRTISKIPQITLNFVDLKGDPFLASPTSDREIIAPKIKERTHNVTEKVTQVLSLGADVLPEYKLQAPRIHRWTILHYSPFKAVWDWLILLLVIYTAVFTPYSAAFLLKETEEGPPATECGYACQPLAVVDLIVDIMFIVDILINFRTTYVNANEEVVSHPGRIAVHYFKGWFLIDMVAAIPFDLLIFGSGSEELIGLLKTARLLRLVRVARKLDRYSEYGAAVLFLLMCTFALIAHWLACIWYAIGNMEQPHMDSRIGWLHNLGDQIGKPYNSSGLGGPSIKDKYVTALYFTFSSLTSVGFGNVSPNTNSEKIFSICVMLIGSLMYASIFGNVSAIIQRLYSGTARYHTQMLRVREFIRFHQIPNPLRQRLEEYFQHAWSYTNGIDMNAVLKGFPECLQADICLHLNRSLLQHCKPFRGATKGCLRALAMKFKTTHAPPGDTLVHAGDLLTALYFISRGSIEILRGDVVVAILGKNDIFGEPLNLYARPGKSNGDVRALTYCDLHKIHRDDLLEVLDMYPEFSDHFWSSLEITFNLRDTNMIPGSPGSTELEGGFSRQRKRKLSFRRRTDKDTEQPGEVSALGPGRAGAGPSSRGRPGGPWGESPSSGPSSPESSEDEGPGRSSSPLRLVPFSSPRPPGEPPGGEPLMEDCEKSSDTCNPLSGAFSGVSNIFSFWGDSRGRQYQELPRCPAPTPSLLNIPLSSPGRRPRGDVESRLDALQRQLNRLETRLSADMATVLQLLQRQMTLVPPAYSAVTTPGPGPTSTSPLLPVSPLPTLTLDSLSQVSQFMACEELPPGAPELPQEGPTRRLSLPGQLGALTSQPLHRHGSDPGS

As for VKFNKPFVFLMIEQNTK [SP16], the “IC50 value (µM), hERG FastPatch assay” value was > 25 µM.
